This note sets out measurements from article PMC9410875, “FOXL2 and FOXA1 cooperatively assemble on the TP53 promoter in alternative dimer configurations”.

By Kd is commonly meant the equilibrium constant for the complex coming apart.

Where a chain is given by its changes, count along the chain named.

Data set [1] addresses T1, FOXL2-DBD (Homo sapiens, UniProt P58012 52-148).
T1 sequence: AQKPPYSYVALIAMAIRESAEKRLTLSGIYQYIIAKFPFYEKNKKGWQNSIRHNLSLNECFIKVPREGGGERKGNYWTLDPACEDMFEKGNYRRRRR
The data set is described as follows: ITC; 1:1 one-site curve; biphasic pattern lost; ITC: 20 mM HEPES pH 7.5, 150 mM NaCl, 10 mM MgCl2, 298 K. EMSA: 2.5 uM DNA, 20 mM HEPES pH 7.5, 50 mM KCl, 10 mM MgCl2, 1 mM DTT, 10% glycerol, on ice 30 min; FOXA1 EMSA: 20 mM Tris-HCl pH 8.0, 0.1 mg/ml BSA, 50 uM ZnCl2, 100 mM KCl, 2 mM beta-mercaptoethanol, 10% glycerol (50 mM EDTA for Mg2+ depletion). Conditions: protein: recombinant; tags: GST tag cleaved by TEV; blunt. (ITC needs no label: the signal is the heat of the interaction.)

In a further data set the target is T2, FOXL2 full-length (UniProt P58012 1-376).
T2 sequence: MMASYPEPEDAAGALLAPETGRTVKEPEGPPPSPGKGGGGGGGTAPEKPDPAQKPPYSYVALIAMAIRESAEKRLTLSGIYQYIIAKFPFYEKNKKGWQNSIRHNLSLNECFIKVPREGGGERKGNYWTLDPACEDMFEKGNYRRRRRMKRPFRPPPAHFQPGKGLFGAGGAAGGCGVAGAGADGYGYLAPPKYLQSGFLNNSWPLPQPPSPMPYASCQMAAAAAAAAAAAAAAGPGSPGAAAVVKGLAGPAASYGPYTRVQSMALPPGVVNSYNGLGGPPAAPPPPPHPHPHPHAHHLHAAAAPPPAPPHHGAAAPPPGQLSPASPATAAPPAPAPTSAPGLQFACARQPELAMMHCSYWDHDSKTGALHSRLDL
The data set is described as follows: EMSA; 1 or 10 ug protein; ITC: 20 mM HEPES pH 7.5, 150 mM NaCl, 10 mM MgCl2, 298 K. EMSA: 2.5 uM DNA, 20 mM HEPES pH 7.5, 50 mM KCl, 10 mM MgCl2, 1 mM DTT, 10% glycerol, on ice 30 min; FOXA1 EMSA: 20 mM Tris-HCl pH 8.0, 0.1 mg/ml BSA, 50 uM ZnCl2, 100 mM KCl, 2 mM beta-mercaptoethanol, 10% glycerol (50 mM EDTA for Mg2+ depletion). The conditions noted are these: protein: recombinant; label: 32P. (Mobility shift assays separate free from complexed probe on a gel.)

In a further data set the target is T3, FOXA1-DBD S177A (UniProt P55317 168-264, S177A).
T3 sequence: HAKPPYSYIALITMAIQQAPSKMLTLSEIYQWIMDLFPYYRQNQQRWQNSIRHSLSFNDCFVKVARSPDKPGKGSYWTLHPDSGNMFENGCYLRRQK
The data set is described as follows: EMSA; little change vs wild type; ITC: 20 mM HEPES pH 7.5, 150 mM NaCl, 10 mM MgCl2, 298 K. EMSA: 2.5 uM DNA, 20 mM HEPES pH 7.5, 50 mM KCl, 10 mM MgCl2, 1 mM DTT, 10% glycerol, on ice 30 min; FOXA1 EMSA: 20 mM Tris-HCl pH 8.0, 0.1 mg/ml BSA, 50 uM ZnCl2, 100 mM KCl, 2 mM beta-mercaptoethanol, 10% glycerol (50 mM EDTA for Mg2+ depletion). The conditions noted are these: protein: recombinant; label: 5' Cy3 on strand 1 (legends say Cy5); blunt.

The target in data set [2] is T1, FOXL2-DBD. The data set is described as follows: ITC; 1:1 stoichiometry; 10 mM MgCl2, 298 K; ITC: 20 mM HEPES pH 7.5, 150 mM NaCl, 10 mM MgCl2, 298 K. EMSA: 2.5 uM DNA, 20 mM HEPES pH 7.5, 50 mM KCl, 10 mM MgCl2, 1 mM DTT, 10% glycerol, on ice 30 min; FOXA1 EMSA: 20 mM Tris-HCl pH 8.0, 0.1 mg/ml BSA, 50 uM ZnCl2, 100 mM KCl, 2 mM beta-mercaptoethanol, 10% glycerol (50 mM EDTA for Mg2+ depletion). Conditions: protein: recombinant; tags: GST tag cleaved by TEV; blunt.

The target in another data set is T4, FOXA1-DBD (UniProt P55317 168-264).
T4 sequence: T3 sequence with A10S
The data set is described as follows: X-ray crystallography; 2:1, 2.1 A; Mg2+ at dimer interface; ITC: 20 mM HEPES pH 7.5, 150 mM NaCl, 10 mM MgCl2, 298 K. EMSA: 2.5 uM DNA, 20 mM HEPES pH 7.5, 50 mM KCl, 10 mM MgCl2, 1 mM DTT, 10% glycerol, on ice 30 min; FOXA1 EMSA: 20 mM Tris-HCl pH 8.0, 0.1 mg/ml BSA, 50 uM ZnCl2, 100 mM KCl, 2 mM beta-mercaptoethanol, 10% glycerol (50 mM EDTA for Mg2+ depletion). The conditions noted are these: protein: recombinant; tags: GST tag cleaved by TEV; chain copies: 2; blunt.

In data set [3] the target is T1, FOXL2-DBD. The data set is described as follows: ITC; 2:1 stoichiometry, biphasic; Kd values not in the text; ITC: 20 mM HEPES pH 7.5, 150 mM NaCl, 10 mM MgCl2, 298 K. EMSA: 2.5 uM DNA, 20 mM HEPES pH 7.5, 50 mM KCl, 10 mM MgCl2, 1 mM DTT, 10% glycerol, on ice 30 min; FOXA1 EMSA: 20 mM Tris-HCl pH 8.0, 0.1 mg/ml BSA, 50 uM ZnCl2, 100 mM KCl, 2 mM beta-mercaptoethanol, 10% glycerol (50 mM EDTA for Mg2+ depletion). Conditions: protein: recombinant; tags: GST tag cleaved by TEV; blunt.

B1: p53 mut2 16 bp (ITC) (dsDNA)
DNA 1: AAATATTTATCCCTCA
DNA 2: TGAGGGATAAATATTT
Regarding B1, in the data set with FOXL2-DBD [1], the binding result is listed as “binds”.

B2: TP53-DNA, 32P probe (dsDNA)
DNA 1: CCCTCATTCAAAAAATATTTATTATCGAGCTCTTACT
DNA 2: AGTAAGAGCTCGATAATAAATATTTTTTGAATGAGGG
As to B2, the binding result with FOXL2 full-length is “binds”.

B3: p53-DNA 26 bp (S0) (dsDNA)
DNA 1: TCAAAAAATATTTATTATCGAGCTCT
DNA 2: AGAGCTCGATAATAAATATTTTTTGA
As to B3, the binding result with FOXA1-DBD S177A is on record as “binds”.

B4: DBE2 DNA 16 bp (dsDNA)
DNA 1: CAAAATGTAAACAAGT
DNA 2: ACTTGTTTACATTTTG
As to B4, in the data set with FOXL2-DBD [2], the Kd came to 790 ± 100 nM.

B5: p53-DNA 16 bp (dsDNA)
DNA 1: AAATATTTATTATCGA
DNA 2: TCGATAATAAATATTT
Consider B5, for which the binding result in the data set with FOXA1-DBD and in the data set with FOXL2-DBD [3] was “binds” each time.
